Source: paper PMC4598862, “Proteasome Activation is Mediated via a Functional Switch of the Rpt6 C-terminal Tail Following Chaperone-dependent Assembly” (Scientific Reports, 2015)

T1: α3-T81C-HA6 (S. cerevisiae, UniProt P23638 1-258, T81C)
T1 construct: CP subunit α3, entire open reading frame with the cysteine substitution; also called α3^HA; source: expressed from the chromosomal locus in S. cerevisiae, immunoprecipitated from lysate on HA-agarose beads; not shown: 6xHA, C-terminal, kept
T1 sequence (looked up): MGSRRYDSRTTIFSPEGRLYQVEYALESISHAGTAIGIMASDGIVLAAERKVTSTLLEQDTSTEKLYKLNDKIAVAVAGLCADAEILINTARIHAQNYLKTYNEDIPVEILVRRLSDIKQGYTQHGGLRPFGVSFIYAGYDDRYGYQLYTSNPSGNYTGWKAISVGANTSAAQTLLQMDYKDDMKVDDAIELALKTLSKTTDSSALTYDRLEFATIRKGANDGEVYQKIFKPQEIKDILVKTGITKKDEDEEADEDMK


Tests used:
[1] = biological target: α2-A79C-HA6 (S. cerevisiae) (UniProt P23639); assay: cross-linking; as a8 but with 2 mM ADP (0.5 mM ADP in the washes)
[2] = biological target: T1, α3-T81C-HA6; assay: cross-linking; proteasomes immunoprecipitated from yeast lysate on HA-agarose via the 6xHA tag of the α subunit, 1 mM ATP; engineered cysteine pair cross-linked with 0.1 mM BMOE, 1 h at 4 °C; SDS-PAGE, immunoblot for the Rpt protein and HA; wild-type and nas6Δ cells (no influence of Nas6); Rpt3-α2 also in rpt6-Δ1 cells (decreased); conditions: partners not purified

percent decrease of crosslinking under ADP relative to ATP [1] [%] | percent decrease of the crosslink ratio (ATP) relative to the Rpt3-α2^HA ratio (ATP) [2] [%] | Binder
90 |  | Rpt3-K428C (natural protein) MEELGIVTPVEKAVEEKPAVKSYASLLAQLNGTVNNNSALSNVNSDIYFKLKKLEKEYELLTLQEDYIKDEQRHLKRELKRAQEEVKRIQSVPLVIGQFLEPIDQNTGIVSSTTGMSYVVRILSTLDRELLKPSMSVALHRHSNALVDILPPDSDSSISVMGENEKPDVTYADVGGLDMQKQEIREAVELPLVQADLYEQIGIDPPRGVLLYGPPGTGKTMLVKAVANSTKAAFIRVNGSEFVHKYLGEGPRMVRDVFRLARENAPSIIFIDEVDSIATKRFDAQTGSDREVQRILIELLTQMDGFDQSTNVKVIMATNRADTLDPALLRPGRLDRKIEFPSLRDRRERRLIFGTIASKMSLAPEADLDSLIIRNDSLSGAVIAAIMQEAGLRAVRKNRYVILQSDLEEAYATQVKTDNTVDKFDFYC
 | 43.6 | Rpt6-K405C (natural protein, S. cerevisiae, UniProt Q01939 1-405, looked up, RP base ATPase Rpt6; K405 is the last residue of Rpt6; source: expressed from the chromosomal locus in S. cerevisiae, in proteasomes immunoprecipitated from lysate via α3-HA6) MTAAVTSSNIVLETHESGIKPYFEQKIQETELKIRSKTENVRRLEAQRNALNDKVRFIKDELRLLQEPGSYVGEVIKIVSDKKVLVKVQPEGKYIVDVAKDINVKDLKASQRVCLRSDSYMLHKVLENKADPLVSLMMVEKVPDSTYDMVGGLTKQIKEIKEVIELPVKHPELFESLGIAQPKGVILYGPPGTGKTLLARAVAHHTDCKFIRVSGAELVQKYIGEGSRMVRELFVMAREHAPSIIFMDEIDSIGSTRVEGSGGGDSEVQRTMLELLNQLDGFETSKNIKIIMATNRLDILDPALLRPGRIDRKIEFPPPSVAARAEILRIHSRKMNLTRGINLRKVAEKMNGCSGADVKGVCTEAGMYALRERRIHVTQEDFELAVGKVMNKNQETAISVAKLFC
